US20210292396A1 (INTERNATIONAL AIDS VACCINE INITIATIVE, published 2021)

What was measured:
Experiment in all cases: cell-based or functional assay
[1] = target: HIV Env of isolate T250-4 (HIV)
[2] = target: HIV Env of isolate T251-18 (HIV)
[3] = target: HIV Env of isolate 235-47 (HIV)
[4] = target: HIV Env of isolate X1254_c3 (HIV)
[5] = target: HIV Env of isolate 3817.v2.c59 (HIV)
[6] = target: HIV Env of isolate 6480.v4.c25 (HIV)
[7] = target: HIV Env of isolate 6952.v1.c20 (HIV)
[8] = target: HIV Env of isolate 3301.v1.c24 (HIV)
[9] = target: HIV Env of isolate 0815.v3.c3 (HIV)
[10] = target: HIV Env of isolate 3103.v3.c10 (HIV)
[11] = target: HIV Env of isolate P0402_C2_11 (HIV)
[12] = target: HIV Env of isolate 6535.3 (HIV)
[13] = target: HIV Env of isolate QH0692.42 (HIV)
[14] = target: HIV Env of isolate SC422661.8 (HIV)
HIV Env of isolate PVO.4 = HIV Env of isolate PVO.4 (HIV)
[15] = target: HIV Env of isolate AC10.0.29 (HIV)
[16] = target: HIV Env of isolate RHPA4259.7 (HIV)
[17] = target: HIV Env of isolate TRJO4551.58 (HIV)
[18] = target: HIV Env of isolate WEAU_d15_410_5017 (HIV)
[19] = target: HIV Env of isolate 1054_07_TC4_1499 (HIV)
[20] = target: HIV Env of isolate 1056_10_TA11_1826 (HIV)
[21] = target: HIV Env of isolate 6240_08_TA5_4622 (HIV)
[22] = target: HIV Env of isolate 6244_13_B5_4576 (HIV)
[23] = target: HIV Env of isolate 62357_14_D3_4589 (HIV)
[24] = target: HIV Env of isolate SC05_8C11_2344 (HIV)
[25] = target: HIV Env of isolate Du156.12 (HIV)
[26] = target: HIV Env of isolate Du422.1 (HIV)
[27] = target: HIV Env of isolate ZM214M.PL15 (HIV)
[28] = target: HIV Env of isolate ZM53M.PB12 (HIV)
[29] = target: HIV Env of isolate ZM135M.PL10a (HIV)
[30] = target: HIV Env of isolate CAP45.2.00.G3 (HIV)
[31] = target: HIV Env of isolate CAP210.2.00.E8 (HIV)
[32] = target: HIV Env of isolate HIV-16845-2.22 (HIV)
[33] = target: HIV Env of isolate Ce1176_A3 (HIV)
[34] = target: HIV Env of isolate Ce1172_H1 (HIV)
[35] = target: HIV Env of isolate 246F_C1G (HIV)
[36] = target: HIV Env of isolate 7030102001E5(Rev-) (HIV)
[37] = target: HIV Env of isolate 1394C9G1(Rev-) (HIV)
[38] = target: HIV Env of isolate Ce704809221_1B3 (HIV)
HIV Env of isolate CNE19 = HIV Env of isolate CNE19 (HIV)
HIV Env of isolate CNE17 = HIV Env of isolate CNE17 (HIV)
HIV Env of isolate CNE30 = HIV Env of isolate CNE30 (HIV)
HIV Env of isolate CNE53 = HIV Env of isolate CNE53 (HIV)
[39] = target: HIV Env of isolate 0330.v4.c3 (HIV)
[40] = target: HIV Env of isolate 191084_B7-19 (HIV)

B1: PGT-121 (antibody, V domains shown)
VH: QMQLQESGPGLVKPSETLSLTCSVSGASISDSYWSWIRRSPGKGLEWIGYVHKSGDTNYSPSLKSRVNLSLDTSKNQVSLSLVAATAADSGKYYCARTLHGRRIYGIVAFNEWFTYFYMDVWGNGTQVTVSS
VL: SDISVAPGETARISCGEKSLGSRAVQWYQHRAGQAPSLIIYNNQDRPSGIPERFSGSPDSPFGTTATLTITSVEAGDEADYYCHIWDSRVPTKWVFGGGTTLTVLG
- neutralization (Table 6 value) [1]: 0.00021
- neutralization (Table 6 value) [2]: 1.16
- neutralization (Table 6 value) [3]: 0.0457
- neutralization (Table 6 value) [4]: 0.0206
- neutralization (Table 6 value) [5]: 0.00949
- neutralization (Table 6 value) [6]: 0.000306
- neutralization (Table 6 value) [7]: 0.000292
- neutralization (Table 6 value) [8]: 0.00869
- neutralization (Table 6 value) [9]: 7.9e-05
- neutralization (Table 6 value) [10]: 0.0206
- neutralization (Table 6 value) [11]: 0.000423
- neutralization (Table 6 value) [12]: 0.00325
- neutralization (Table 6 value) [13]: 0.176
- neutralization (Table 6 value) [14]: 0.0272
- neutralization (Table 6 value) (HIV Env of isolate PVO.4): 0.115
- neutralization (Table 6 value) [15]: 0.029
- neutralization (Table 6 value) [16]: 0.00915
- neutralization (Table 6 value) [17]: 0.406
- neutralization (Table 6 value) [18]: 0.0144
- neutralization (Table 6 value) [19]: 0.0334
- neutralization (Table 6 value) [20]: 0.0162
- neutralization (Table 6 value) [21]: 0.0427
- neutralization (Table 6 value) [22]: 0.14
- neutralization (Table 6 value) [23]: 0.392
- neutralization (Table 6 value) [24]: 0.0278
- neutralization (Table 6 value) [25]: 0.00534
- neutralization (Table 6 value) [26]: 0.00172
- neutralization (Table 6 value) [27]: 0.119
- neutralization (Table 6 value) [28]: 0.00038
- neutralization (Table 6 value) [29]: 1.32
- neutralization (Table 6 value) [30]: 0.0713
- neutralization (Table 6 value) [31]: 0.618
- neutralization (Table 6 value) [32]: 0.25
- neutralization (Table 6 value) [33]: 0.00882
- neutralization (Table 6 value) [34]: 0.00693
- neutralization (Table 6 value) [35]: 0.0215
- neutralization (Table 6 value) [36]: 0.00679
- neutralization (Table 6 value) [37]: 0.122
- neutralization (Table 6 value) [38]: 0.028
- neutralization (Table 6 value) (HIV Env of isolate CNE19): 0.00315
- neutralization (Table 6 value) (HIV Env of isolate CNE17): 0.225
- neutralization (Table 6 value) (HIV Env of isolate CNE30): 0.00313
- neutralization (Table 6 value) (HIV Env of isolate CNE53): 0.00701
- neutralization (Table 6 value) [39]: 0.0513
- neutralization (Table 6 value) [40]: 0.0247

B2: ePGT121.15.H1.L1 (antibody, V domains shown)
VH: QMQLQESGPGLVKPGETLSLTCSVSGASISSSYWSWLRETPGKGLEWIGYTHHSGDTNYAPSLKSRVHLGLHPSKNQVSLSLTSVTAADTAVYYCARTLHGRRIYGVVAFNEWFTYFYWEVWGNGTQVTVSS
VL: SDISVAPGETVRISCGGESIGSRAVQWYQHRAGQAPKLIIYNNQDRPPGIPERFSGSPDIDFGTTATLTITNVEAGDEATYYCHIWDSRRPTNWVFGGGTTLTVL
- neutralization (Table 6 value) [1]: 0.000854
- neutralization (Table 6 value) [2]: 0.0274
- neutralization (Table 6 value) [3]: 0.0061
- neutralization (Table 6 value) [4]: 0.00299
- neutralization (Table 6 value) [5]: 0.00495
- neutralization (Table 6 value) [6]: 0.000305
- neutralization (Table 6 value) [7]: 0.00081
- neutralization (Table 6 value) [8]: 0.00166
- neutralization (Table 6 value) [9]: 0.00167
- neutralization (Table 6 value) [10]: 0.00509
- neutralization (Table 6 value) [11]: 0.00268
- neutralization (Table 6 value) [12]: 0.00121
- neutralization (Table 6 value) [13]: 0.0149
- neutralization (Table 6 value) [14]: 0.00372
- neutralization (Table 6 value) (HIV Env of isolate PVO.4): 0.0044
- neutralization (Table 6 value) [15]: 0.00272
- neutralization (Table 6 value) [16]: 0.00233
- neutralization (Table 6 value) [17]: 0.00359
- neutralization (Table 6 value) [18]: 0.00209
- neutralization (Table 6 value) [19]: 0.00167
- neutralization (Table 6 value) [20]: 0.00391
- neutralization (Table 6 value) [21]: 0.0052
- neutralization (Table 6 value) [22]: 0.00697
- neutralization (Table 6 value) [23]: 0.00982
- neutralization (Table 6 value) [24]: 0.00762
- neutralization (Table 6 value) [25]: 0.00124
- neutralization (Table 6 value) [26]: 0.00243
- neutralization (Table 6 value) [27]: 0.0146
- neutralization (Table 6 value) [28]: 0.00206
- neutralization (Table 6 value) [29]: 0.11
- neutralization (Table 6 value) [30]: 3.06
- neutralization (Table 6 value) [31]: 0.0229
- neutralization (Table 6 value) [32]: 0.0209
- neutralization (Table 6 value) [33]: 0.00282
- neutralization (Table 6 value) [34]: 0.00075
- neutralization (Table 6 value) [35]: 0.00428
- neutralization (Table 6 value) [36]: 0.00261
- neutralization (Table 6 value) [37]: 0.00403
- neutralization (Table 6 value) [38]: 0.00162
- neutralization (Table 6 value) (HIV Env of isolate CNE19): 0.00103
- neutralization (Table 6 value) (HIV Env of isolate CNE17): 0.0106
- neutralization (Table 6 value) (HIV Env of isolate CNE30): 0.00299
- neutralization (Table 6 value) (HIV Env of isolate CNE53): 0.00288
- neutralization (Table 6 value) [39]: 0.00621
- neutralization (Table 6 value) [40]: 0.00279

B3: ePGT121.15.H6.L1 (antibody, V domains shown)
VH: QMQLQESGPGLVKPGETLSLTCSVSGASISSSYWSWLRETPGKGLEWIGYTHHSGDTNYAPSLKSRVHLGLHPSKNQVSLSLTSVTAADTAVYYCARTLHGRRIYGVVAFNEFFTYFYWEVWGKGTQVTVSS
VL: SDISVAPGETVRISCGGESIGSRAVQWYQHRAGQAPKLIIYNNQDRPPGIPERFSGSPDIDFGTTATLTITNVEAGDEATYYCHIWDSRRPTNWVFGGGTTLTVL
- neutralization (Table 6 value) [1]: 0.000789
- neutralization (Table 6 value) [2]: 0.0274
- neutralization (Table 6 value) [3]: 0.00363
- neutralization (Table 6 value) [4]: 0.00272
- neutralization (Table 6 value) [5]: 0.00361
- neutralization (Table 6 value) [6]: 0.000826
- neutralization (Table 6 value) [7]: 0.000793
- neutralization (Table 6 value) [8]: 0.00134
- neutralization (Table 6 value) [9]: 0.00022
- neutralization (Table 6 value) [10]: 0.00513
- neutralization (Table 6 value) [11]: 0.0015
- neutralization (Table 6 value) [12]: 0.00121
- neutralization (Table 6 value) [13]: 0.0126
- neutralization (Table 6 value) [14]: 0.00285
- neutralization (Table 6 value) (HIV Env of isolate PVO.4): 0.00517
- neutralization (Table 6 value) [15]: 0.00278
- neutralization (Table 6 value) [16]: 0.00225
- neutralization (Table 6 value) [17]: 0.00673
- neutralization (Table 6 value) [18]: 0.00205
- neutralization (Table 6 value) [19]: 0.00129
- neutralization (Table 6 value) [20]: 0.00186
- neutralization (Table 6 value) [21]: 0.00465
- neutralization (Table 6 value) [22]: 0.0055
- neutralization (Table 6 value) [23]: 0.0132
- neutralization (Table 6 value) [24]: 0.00473
- neutralization (Table 6 value) [25]: 0.000917
- neutralization (Table 6 value) [26]: 0.00264
- neutralization (Table 6 value) [27]: 0.00993
- neutralization (Table 6 value) [28]: 0.00204
- neutralization (Table 6 value) [29]: 0.168
- neutralization (Table 6 value) [30]: 1.8e-05
- neutralization (Table 6 value) [31]: 0.0311
- neutralization (Table 6 value) [32]: 0.0283
- neutralization (Table 6 value) [33]: 0.00302
- neutralization (Table 6 value) [34]: 0.000952
- neutralization (Table 6 value) [35]: 0.00278
- neutralization (Table 6 value) [36]: 0.00241
- neutralization (Table 6 value) [37]: 0.00288
- neutralization (Table 6 value) [38]: 0.00231
- neutralization (Table 6 value) (HIV Env of isolate CNE19): 0.000806
- neutralization (Table 6 value) (HIV Env of isolate CNE17): 0.0101
- neutralization (Table 6 value) (HIV Env of isolate CNE30): 0.00289
- neutralization (Table 6 value) (HIV Env of isolate CNE53): 0.00306
- neutralization (Table 6 value) [39]: 0.00764
- neutralization (Table 6 value) [40]: 0.00312
